{"source": "paper PMC11339910", "about": "(Journal of molecular biology, 2024)", "binders": {"B1": {"name": "Fab region of tralokinumab (Fab, V domains shown)", "VH": "QVQLVQSGAEVKKPGASVKVSCKASGYTFTNYGLSWVRQAPGQGLEWMGWISANNGDTNYGQEFQGRVTMTTDTSTSTAYMELRSLRSDDTAVYYCARDSSSSWARWFFDLWGRGTLVTVSS", "VL": "SYVLTQPPSVSVAPGKTARITCGGNIIGSKLVHWYQQKPGQAPVLVIYDDGDRPSGIPERFSGSNSGNTATLTISRVEAGDEADYYCQVWDTGSDPVVFGGGTKLTVL"}}, "target": "IL-13 (UniProt P35225)", "sequence (P35225 35-143)": "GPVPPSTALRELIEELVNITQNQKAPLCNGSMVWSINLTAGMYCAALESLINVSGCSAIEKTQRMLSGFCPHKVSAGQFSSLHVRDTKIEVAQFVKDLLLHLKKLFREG", "assay": "SPR", "data": [{"binder": "B1", "values": [{"measurement": "binding result", "result": "binds"}]}]}
